Tests used:
[1] = target: T1, human EpCAM extracellular domain with C-terminal His tag (Novoprotein #C339) (human, UniProt P16422 24-265); assay: assay not given; ranks EpCAM affinity among Bi-1, Bi-2 and Bi-8
T1 construct: extracellular domain; Bought protein
T1 sequence (looked up): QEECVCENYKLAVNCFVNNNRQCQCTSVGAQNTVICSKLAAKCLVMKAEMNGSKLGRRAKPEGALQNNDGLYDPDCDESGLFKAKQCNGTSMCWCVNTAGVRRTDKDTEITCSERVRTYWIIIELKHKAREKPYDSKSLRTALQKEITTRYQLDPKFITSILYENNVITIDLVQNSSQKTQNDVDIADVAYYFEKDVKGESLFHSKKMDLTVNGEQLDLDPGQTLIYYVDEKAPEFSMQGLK

[2] = target: T2, human CD47 extracellular domain with C-terminal 6×His tag (human, UniProt Q08722 19-139, limits assumed); assay: ELISA on human CD47
T2 construct: extracellular domain; Made in Expi293F cells (section 5.4.1); also called recombinant CD47; huCD47

[3] = target: T2, human CD47 extracellular domain with …; assay: ELISA on human CD47; EC50 given as a bin, limits from the table's legend; lower limit of bin A
Procedure: (§1) A 96-well plate was coated overnight at 4° C. with 1 μg/ml recombinant CD47. After washing 3 times, the plate was blocked with 300 μl 1% BSA in PBST at 37° C. for 1 hour. Serially diluted antibodies were added and incubated at 37° C. for 1 hour. […] The plate was washed again 4 times with PBST, incubated with 3,3′,5,5′-tetramethylbenzidine (TMB) substrate for 15 min at room temperature, terminated with 1N HCl, and then read at 450 nm.

[4] = target: T3, CD47 expressed on human red blood cells (human, UniProt Q08722 19-323); assay: flow cytometry on human red blood cells
T3 construct: whole, on cells; also called RBCs; RBC
Procedure: The RBC binding assay was performed by spinning down fresh human whole blood at 200 g for 10 minutes. Collected RBCs were washed twice with PBS and counted using flow cytometry. 1×10⁶ cells were dispensed into each well of a 96 well culture plate. Serially diluted anti-CD47 antibodies were added and incubated for 1 hour at 4° C. Cells were washed with FACS buffer (PBS+2% FBS) twice. […] Cells were washed twice and resuspended in 200 μl of FACS buffer and analyzed by flow cytometry.

[5] = target: T2, human CD47 extracellular domain with …; assay: ELISA on human CD47; EC50 given as a bin, limits from the table's legend; upper limit of bin A
Procedure: as §1

[6] = target: T2, human CD47 extracellular domain with …; assay: ELISA on human CD47; EC50 given as a bin, limits from the table's legend; lower limit of bin C
Procedure: as §1

[7] = target: T2, human CD47 extracellular domain with …; assay: ELISA on human CD47; EC50 given as a bin, limits from the table's legend; upper limit of bin C
Procedure: as §1

B1: Bi-8 (3C-KIH EpCAM × CD47 scFv bispecific antibody) (bispecific antibody)
chain: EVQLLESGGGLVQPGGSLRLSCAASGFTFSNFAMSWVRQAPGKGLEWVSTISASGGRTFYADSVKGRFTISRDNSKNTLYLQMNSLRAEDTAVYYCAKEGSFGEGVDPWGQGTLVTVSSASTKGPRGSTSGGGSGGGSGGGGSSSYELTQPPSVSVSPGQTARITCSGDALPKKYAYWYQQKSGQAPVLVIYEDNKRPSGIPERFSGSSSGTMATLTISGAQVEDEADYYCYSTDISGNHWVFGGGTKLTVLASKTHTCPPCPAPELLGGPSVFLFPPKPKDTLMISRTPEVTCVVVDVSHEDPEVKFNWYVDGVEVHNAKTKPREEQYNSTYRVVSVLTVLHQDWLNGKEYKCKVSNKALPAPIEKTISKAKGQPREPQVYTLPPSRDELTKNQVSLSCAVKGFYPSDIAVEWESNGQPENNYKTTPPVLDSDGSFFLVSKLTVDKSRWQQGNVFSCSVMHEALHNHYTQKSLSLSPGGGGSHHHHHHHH
heavy: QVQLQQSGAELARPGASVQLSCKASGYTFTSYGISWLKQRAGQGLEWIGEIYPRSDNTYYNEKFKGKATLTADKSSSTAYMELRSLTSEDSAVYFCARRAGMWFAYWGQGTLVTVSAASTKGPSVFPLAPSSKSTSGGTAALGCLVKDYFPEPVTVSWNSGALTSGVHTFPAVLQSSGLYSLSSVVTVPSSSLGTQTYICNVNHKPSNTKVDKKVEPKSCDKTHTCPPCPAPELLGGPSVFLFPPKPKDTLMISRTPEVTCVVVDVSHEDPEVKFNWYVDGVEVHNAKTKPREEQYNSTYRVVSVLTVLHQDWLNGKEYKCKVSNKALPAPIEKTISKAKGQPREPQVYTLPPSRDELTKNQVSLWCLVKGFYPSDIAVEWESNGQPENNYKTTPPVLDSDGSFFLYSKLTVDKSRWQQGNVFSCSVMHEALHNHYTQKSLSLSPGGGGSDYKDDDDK
VL: EIVLTQSPAITAASLGQKVTITCSASSSVSDMHWYQQKSGTSPKPWIYEISKLASGVPTRFSGSGSGTSYSLTISSMEAEDAAIYYCQHWSYPLMTFGGGTKLEIK
notes: Three-chain knob-into-hole format
B1: binds [1]; binds [2].

B2: VIR47 hIgG1 (antibody)
heavy: not shown
light: SYEMTQPPSVSVSPGQTARITCSGDALPKKYAYWYQQKSGQAPVLVIYEDNKRPSGIPERFSGSSSGTMATLTISGAQVEDEADYYCYSTDISGNHWVFGGGTELTVLGQPKAAPSVTLFPPSSEELQANKATLVCLISDFYPGAVTVAWKADSSPVKAGVETTTPSKQSNNKYAASSYLSLTPEQWKSHRSYSCQVTHEGSTVEKTVAPTECS
notes: also called VIR47 IgG1; IgG1 form of VIR47
B2 was tested, and the EC50 [3] was ≥ 0.01 nM, the “fold higher concentration required for RBC binding, against CD47 BMK-1” value [4] was > 20 fold and the EC50 [5] was ≤ 0.15 nM.

B3: VIR47 IgG1 HC F98A (antibody, V domains shown)
VH: EVQLLESGGGLVQPGGSLRLSCAASGFTFSNFAMSWVRQAPGKGLEWVSTISASGGRTFYADSVKGRITISRDNSKNTLFLQMNGLRAEDTAVYYCAKEGSAGEGVDPWGQGTLVTVSS
VL: SYEMTQPPSVSVSPGQTARITCSGDALPKKYAYWYQQKSGQAPVLVIYEDNKRPSGIPERFSGSSSGTMATLTISGAQVEDEADYYCYSTDISGNHWVFGGGTELTVLG
notes: Alanine-scan variant of the IgG1 form of VIR47; position in Kabat-style numbering, not the linear count on the entry
For B3, the EC50 [6] was ≥ 0.4 nM and the EC50 [7] was ≤ 5 nM.

From patent US20230159663A1 (VIRTUOSO BINCO, published 2023)
